What was measured:
Test in all cases: SPR, captured hENG-hFc, soluble BMP9; '-' = Binding undetectable
[1] = molecular target: T1, hENG(133-346)-hFc (human, UniProt P17813 133-346)
T1 construct: HEK 293, purified; not shown: linker and human IgG1 Fc domain
T1 sequence: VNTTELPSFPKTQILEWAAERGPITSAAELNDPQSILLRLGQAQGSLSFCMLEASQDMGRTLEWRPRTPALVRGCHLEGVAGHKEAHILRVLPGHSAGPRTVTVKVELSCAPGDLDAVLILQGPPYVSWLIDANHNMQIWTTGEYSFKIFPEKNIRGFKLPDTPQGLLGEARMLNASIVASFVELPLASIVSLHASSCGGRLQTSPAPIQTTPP
Protocol: (§1) SPR methodology was used to screen these hENG-hFc protein variants for high-affinity binding to human BMP9 and BMP10. In these experiments, captured hENG-hFc proteins were exposed to soluble BMP9 or BMP10 at 100 nM each.

[2] = molecular target: T2, hENG(129-346)-hFc (human, UniProt P17813 129-346)
T2 construct: HEK 293, purified; not shown: linker and human IgG1 Fc domain
T2 sequence: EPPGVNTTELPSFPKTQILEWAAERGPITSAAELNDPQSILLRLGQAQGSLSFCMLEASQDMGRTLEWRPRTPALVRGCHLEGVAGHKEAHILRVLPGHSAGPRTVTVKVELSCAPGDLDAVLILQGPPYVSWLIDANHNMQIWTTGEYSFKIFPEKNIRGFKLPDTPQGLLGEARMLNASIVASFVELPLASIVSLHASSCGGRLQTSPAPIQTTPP
Protocol: as §1

[3] = molecular target: T3, hENG(166-346)-hFc (human, UniProt P17813 166-346)
T3 construct: HEK 293, purified; not shown: linker and human IgG1 Fc domain
T3 sequence: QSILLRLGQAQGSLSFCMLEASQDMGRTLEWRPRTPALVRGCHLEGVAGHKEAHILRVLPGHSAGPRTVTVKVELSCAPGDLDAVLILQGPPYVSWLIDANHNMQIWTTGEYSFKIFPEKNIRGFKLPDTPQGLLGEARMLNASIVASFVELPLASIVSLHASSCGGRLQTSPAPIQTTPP
Protocol: as §1

[4] = molecular target: T4, hENG(26-329)-hFc (human, UniProt P17813 26-329)
T4 construct: HEK 293, purified; not shown: linker and human IgG1 Fc domain
T4 sequence: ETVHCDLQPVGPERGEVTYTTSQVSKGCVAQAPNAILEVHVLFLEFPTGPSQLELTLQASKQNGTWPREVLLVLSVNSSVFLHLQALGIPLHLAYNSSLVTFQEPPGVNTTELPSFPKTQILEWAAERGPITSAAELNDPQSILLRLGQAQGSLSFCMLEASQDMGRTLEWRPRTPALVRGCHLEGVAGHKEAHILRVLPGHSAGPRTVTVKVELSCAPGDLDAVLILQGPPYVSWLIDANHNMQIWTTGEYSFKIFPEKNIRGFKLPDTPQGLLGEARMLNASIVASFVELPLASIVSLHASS
Protocol: as §1

[5] = molecular target: T5, hENG(458-581)-hFc (human, UniProt P17813 458-581)
T5 construct: Expressed in COS cells, not purified; not shown: linker and human IgG1 Fc domain
T5 sequence: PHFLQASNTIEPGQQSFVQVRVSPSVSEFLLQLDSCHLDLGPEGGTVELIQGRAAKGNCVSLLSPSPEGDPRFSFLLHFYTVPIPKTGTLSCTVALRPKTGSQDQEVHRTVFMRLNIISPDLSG
Protocol: as §1

[6] = molecular target: T6, hENG(458-586)-hFc (human, UniProt P17813 458-586)
T6 construct: Expressed in COS cells, not purified; not shown: linker and human IgG1 Fc domain
T6 sequence: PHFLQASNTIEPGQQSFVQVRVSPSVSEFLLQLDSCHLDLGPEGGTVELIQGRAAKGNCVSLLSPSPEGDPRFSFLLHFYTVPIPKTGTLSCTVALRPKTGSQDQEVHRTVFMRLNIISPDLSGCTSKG
Protocol: as §1

[7] = molecular target: T7, hENG(360-586)-hFc (human, UniProt P17813 360-586)
T7 construct: HEK 293, purified; not shown: linker and human IgG1 Fc domain
T7 sequence: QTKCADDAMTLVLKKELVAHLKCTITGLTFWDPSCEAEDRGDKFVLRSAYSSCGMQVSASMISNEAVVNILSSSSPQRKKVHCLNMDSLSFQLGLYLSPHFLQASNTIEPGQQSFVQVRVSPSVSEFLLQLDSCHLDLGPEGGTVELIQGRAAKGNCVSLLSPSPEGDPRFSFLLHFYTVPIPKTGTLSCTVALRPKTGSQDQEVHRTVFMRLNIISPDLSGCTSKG
Protocol: as §1

[8] = molecular target: T8, hENG(360-581)-hFc (human, UniProt P17813 360-581)
T8 construct: HEK 293, purified; not shown: linker and human IgG1 Fc domain
T8 sequence: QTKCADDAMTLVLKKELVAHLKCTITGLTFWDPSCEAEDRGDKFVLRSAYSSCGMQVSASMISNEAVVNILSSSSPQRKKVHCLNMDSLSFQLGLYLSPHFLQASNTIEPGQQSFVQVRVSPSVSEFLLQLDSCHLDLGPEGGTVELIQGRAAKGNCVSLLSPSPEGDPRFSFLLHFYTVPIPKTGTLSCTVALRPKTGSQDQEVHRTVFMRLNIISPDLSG
Protocol: as §1

[9] = molecular target: T9, hENG(26-332)-hFc (human, UniProt P17813 26-332)
T9 construct: HEK 293, purified; not shown: linker and human IgG1 Fc domain
T9 sequence: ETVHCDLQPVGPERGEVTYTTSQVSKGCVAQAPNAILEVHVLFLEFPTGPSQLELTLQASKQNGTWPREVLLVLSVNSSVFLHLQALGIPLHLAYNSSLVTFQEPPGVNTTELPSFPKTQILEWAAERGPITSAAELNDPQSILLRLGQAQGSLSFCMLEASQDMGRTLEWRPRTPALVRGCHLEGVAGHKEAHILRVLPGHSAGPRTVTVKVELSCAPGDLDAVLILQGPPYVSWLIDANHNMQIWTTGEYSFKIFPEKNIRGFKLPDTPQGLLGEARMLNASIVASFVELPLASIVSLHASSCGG
Protocol: as §1

binding result [1]: no binding (tested: 100 nM) | binding result [2]: no binding (tested: 100 nM) | binding result [3]: no binding (tested: 100 nM) | binding result [4]: no binding (tested: 100 nM) | binding result [5]: no binding (tested: 100 nM) | binding result [6]: no binding (tested: 100 nM) | binding result [7]: no binding (tested: 100 nM) | binding result [8]: no binding (tested: 100 nM) | binding result [9]: no binding (tested: 100 nM)
B1: BMP9 (ligand, human, UniProt Q9UK05 320-429, looked up)
chain: SAGAGSHCQKTSLRVNFEDIGWDSWIIAPKEYEAYECKGGCFFPLADDVTPTKHAIVQTLVHLKFPTKVGKACCVPTKLSPISVLYKDDMGVPTLKYHYEGMSVAECGCR
notes: also called hBMP-9; hBMP9
